Experiment [1] deals with HLA-A*02:01. The experiment can be described thus: IEDB peptide-MHC binding, purified MHC/competitive/fluorescence; ≥ and ≤ were set here for values at or beyond the usual limits of such assays.
Experiment [2] concerns the target HLA-A*30:01. The experiment can be described thus: IEDB peptide-MHC binding, purified MHC/competitive/radioactivity; filed as Kd, often an IC50 or EC50 that approximates it; ≥ and ≤ were set here for values at or beyond the usual limits of such assays.
For experiment [3], the target named is HLA-A*01:01. The description is as above.
For experiment [4], the target named is HLA-A*26:01. The description is as above.
For experiment [5], the target named is HLA-A*30:02. The description is as above.
The target of experiment [6] is HLA-A*32:01. The experiment is described as above.
Experiment [7] concerns the target HLA-A*02:01. The experiment can be described thus: IEDB peptide-MHC binding, purified MHC/competitive/fluorescence; filed as Kd, often an IC50 or EC50 that approximates it; ≥ and ≤ were set here for values at or beyond the usual limits of such assays.
The target of experiment [8] is HLA-B*18:01. The experiment can be described thus: IEDB peptide-MHC binding, purified MHC/direct/fluorescence; filed as Kd, often an IC50 or EC50 that approximates it; ≥ and ≤ were set here for values at or beyond the usual limits of such assays. As to conditions: source organism: Mammarenavirus lassaense.
Experiment [9] addresses HLA-B*40:01. Described as above.
In experiment [10] the target is HLA-A*03:01. Described as above.
The target of experiment [11] is HLA-A*11:01. The experiment is described as above.
Experiment [12] concerns the target HLA-A*31:01. The description is as above.
The target of experiment [13] is HLA-B*27:05. The experiment is described as above.
In experiment [14] the target is HLA-A*33:01. The experiment is described as follows: IEDB peptide-MHC binding, purified MHC/competitive/radioactivity; filed as Kd, often an IC50 or EC50 that approximates it; ≥ and ≤ were set here for values at or beyond the usual limits of such assays. The following applies: source organism: SARS coronavirus Tor2.
The target in experiment [15] is HLA-A*68:01. Described as above.
For experiment [16], the target named is HLA-B*51:01. The experiment is described as above. As to conditions: source organism: Dengue virus 4 Philippines/H241/1956.
The target in experiment [17] is HLA-B*58:01. The experiment is described as follows: IEDB peptide-MHC binding, purified MHC/direct/fluorescence; filed as Kd, often an IC50 or EC50 that approximates it; ≥ and ≤ were set here for values at or beyond the usual limits of such assays. The following applies: source organism: SARS-CoV1.
The mark [18] stands for this setting: source organism: Vaccinia virus.
[19] abbreviates: source organism: Vaccinia virus WR.
Where [20] appears, read: source organism: Dengue virus 2 Jamaica/1409/1983.
Where [21] appears, read: source organism: Dengue virus 1 Brazil/97-11/1997.
The mark [22] stands for this setting: source organism: Zaire ebolavirus.
The mark [23] stands for this setting: source organism: Dengue virus 3 Martinique/1243/1999.
The mark [24] stands for this setting: source organism: Lassa virus Josiah.
[25] abbreviates: source organism: Vibrio vulnificus.

Regarding KIKDVSYND, the IC50 in [1] (setting [18]) is at least 571000 nM.

On to RYRFAFLYL, for which the Kd in [2] (setting [19]) is 0.169 nM.

In the case of TFKNPHAKK, the Kd in [2] (setting [20]) came out at 1460 nM.

As to NAICSAVPSH, the dissociation constant (Kd) in experiment [2] (setting [20]) came to 6440 nM.

With AEALKGMPIR, the Kd in experiment [2] (setting [21]) worked out at 1260 nM.

On to SIPATLFVWY, for which the Kd was at least 20500 nM in experiment [3] (setting [21]) and 128 nM in experiment [4] (setting [21]).

As to KMEALQRKY, the dissociation constant Kd in experiment [5] (source organism: Dengue virus 2 16681-PDK53) is 61.4 nM.

As to KTISMLIEV, the Kd in [2] (setting [19]) is 580 nM.

For KVYINHPFM, the Kd in experiment [2] (setting [19]) worked out at 0.517 nM.

Turning to RTNNAELDF, the Kd in experiment [6] (setting [19]) amounted to 131 nM.

In experiment [1] (setting [22]), GAVKYLEGH gave an IC50 of at least 521000 nM.

In the case of LMHAPAFET, in experiment [1] (source organism: Human alphaherpesvirus 1 strain 17), the IC50 amounted to 2000 nM.

Take GLCTLVAM: in [7] (source organism: Human herpesvirus 4 strain B95-8), the Kd stood at 2370 nM.

With NETGLELTL, the Kd in experiment [8] stood at 16.7 nM; in experiment [9] (source organism: Mammarenavirus lassaense) it was 19 nM.

With IGNEEFLDY, the equilibrium dissociation constant (Kd) in [5] (setting [23]) worked out at 961 nM.

Turning to VSNRCPICK, the Kd in [10] (setting [24]) was determined as 882 nM; in [11] (setting [24]) it was 47.2 nM.

As for RIYSDPLAL, the Kd in [6] (setting [20]) worked out at 14100 nM.

Regarding KVKSYNYML, the Kd in [2] (setting [19]) was 0.175 nM.

In turn, AFGLYKSIN displayed a half-inhibitory concentration (IC50) in [1] (setting [19]) of at least 245000 nM.

Take ATFSVPMEK: the Kd amounted to 141 nM in [12] (source organism: SARS-CoV1), 19000 nM in experiment [13] (source organism: SARS-CoV1), 14500 nM in [14] and 0.161 nM in experiment [15] (source organism: SARS coronavirus Tor2).

With DVFYLPPEK, the results for the equilibrium dissociation constant (Kd) in experiment [2] (setting [23]) and in experiment [15] (setting [23]) were 1370 nM and 5.57 nM, respectively.

On to YSDPLALRE, for which the Kd in experiment [3] (setting [21]) is 262 nM.

Turning to VSETQHGTIL, the Kd in experiment [3] (setting [23]) is at least 70400 nM.

As for IMAKNEVFCV, the IC50 in experiment [1] (source organism: Hepatitis C virus genotype 1) was 5000 nM.

With DPFPQSNSPI, the Kd in experiment [16] turned out to be 733 nM.

As for FEGIAVLGL, the dissociation constant (Kd) in experiment [9] (source organism: Mycobacterium tuberculosis variant bovis) was determined as 67.6 nM.

As for ETENILTVL, in experiment [4] (setting [23]), the Kd came to 2940 nM.

On to IVREAIKRK, for which, in experiment [2] (setting [21]), the Kd was 97.7 nM.

Turning to KLKPRWLDA, the equilibrium dissociation constant (Kd) in experiment [2] (setting [20]) amounted to 21 nM.

In the case of GTLEFTPID, in experiment [1] (setting [19]), the IC50 is at least 132000 nM.

VIMEYHLLF: the dissociation constant (Kd) in experiment [6] (source organism: Vaccinia virus Copenhagen) is at least 77800 nM.

For KTSCSKNEA, in [2] (setting [19]), the Kd was 72.2 nM.

Regarding GVKRLEELL, the IC50 in experiment [1] (setting [22]) is 49200 nM.

In the case of TTTLEETKF, the dissociation constant Kd in [11] (source organism: SARS-CoV1) was at least 109000 nM; in [17], 11700 nM.

As to HWFSRENSY, the Kd in [5] (setting [23]) is 246 nM.

With LWRTLGRNK, in experiment [2] (setting [23]), the Kd is 478 nM.

In the case of RFKKESSLA, the Kd in experiment [2] (setting [19]) was 0.305 nM.

In the case of KVLFLQQSI, the equilibrium dissociation constant (Kd) in [6] (setting [19]) came to 0.704 nM.

In experiment [1] (source organism: Sudan ebolavirus), PLGVVTNST showed a half-maximal inhibitory concentration (IC50) of at least 114000 nM.

With KLKFRFIIR, the Kd in experiment [2] (setting [19]) worked out at 119 nM.

Regarding MQYMTIQQK, the Kd worked out at 203 nM in experiment [10] (setting [25]) and 346 nM in experiment [12] (setting [25]).

In the case of ATYEPDVDL, the Kd in experiment [6] (source organism: Dengue virus 2 Peru/IQT2913/1996) came to 7390 nM.

Turning to KIDTTHVSKV, the Kd in [7] (source organism: Vaccinia virus Tian Tan) turned out to be 206 nM.

Sequence TLFIGSHVV came in with a Kd in [7] (source organism: human gammaherpesvirus 4) of 1.4 nM.

Take QLLLQKYPP: in experiment [1] (setting [18]), the IC50 is at least 93600 nM.

For the sequence HLMFYTLPI, the Kd in [6] (setting [19]) was 0.177 nM.

For RYRQRLISL, the Kd in [2] (setting [19]) was 5.17 nM.

For WAFWETKKN, the IC50 in experiment [1] (setting [22]) is at least 212000 nM.

In experiment [7] (setting [19]), KIEIERKKL returned a Kd of 422 nM.

Regarding LMDMITLSL, in experiment [6] (setting [19]), the Kd was found to be 29.7 nM.

The sequence RRLVKVLNN showed a dissociation constant Kd in experiment [13] (source organism: Mycobacterium avium 104) of 4370 nM.

These data come from the Immune Epitope Database (IEDB).
